According to patent publication US20110318339A1 (FABRUS, published 2011):
Numbering of substitutions follows the chain as printed. Names may count otherwise. One block for each binder: values may come before it.

Columns and labels:
[1] = biological target: T1, recombinant human DLL4 (Cat# 1506-D4/CF, R&D Systems) (human, UniProt Q9NR61 27-529); assay: ELISA, hDLL4 coated 0.5 ng/ul, Fab 0.78 nM
T1 construct: Bought protein; also called hDLL4; h DLL4
Description: (§1) The plate was blocked by adding 1% BSA in Tris-buffered Saline Tween (TBST) and incubating for 1 hour at room temperature followed by washing 2 times with 150 μl TBST. A Fab antibody was serially diluted in 1% BSA in PBS. A 50 μl aliquot of each serial dilution was added, in triplicate, to each well and the plate was incubated for 1 hour at room temperature followed by washing 2 times with TBST. 50 μl of either goat anti-human kappa HRP conjugated secondary antibody (Cat # A7164-1 mL, Sigma-Aldrich) or goat anti-human lambda HRP conjugated secondary antibody (Cat # L1645-1 ml, Sigma-Aldrich), diluted 1:1000 in 1% BSA in PBS, was added to each well and the plate was incubated for 30 minutes at room temperature followed by washing 3 times with 200 μl TBST. Finally, 50 μl TMB one-component reagent (Cat # TMBW-1000-01, BioFax) was added and allowed to develop for 2 minutes at room temperature. The reaction was immediately halted by the addition of 50 μl 0.5M H₂SO₄ and the absorbance at 450 nm was measured using an ELISA plate reader.

[2] = biological target: T1, recombinant human DLL4 (Cat# …); assay: ELISA, hDLL4 coated 0.5 ng/ul, Fab 1.56 nM
Description: as §1

[3] = biological target: T1, recombinant human DLL4 (Cat# …); assay: ELISA, hDLL4 coated 0.5 ng/ul, Fab 12.50 nM
Description: as §1

[4] = biological target: T1, recombinant human DLL4 (Cat# …); assay: ELISA, hDLL4 coated 0.5 ng/ul, Fab 25.00 nM
Description: as §1

[5] = biological target: T1, recombinant human DLL4 (Cat# …); assay: ELISA, hDLL4 coated 0.5 ng/ul, Fab 50.00 nM
Description: as §1

[6] = biological target: T1, recombinant human DLL4 (Cat# …); assay: ELISA, hDLL4 coated 0.5 ng/ul, Fab 3.13 nM
Description: as §1

[7] = biological target: T1, recombinant human DLL4 (Cat# …); assay: ELISA, hDLL4 coated 0.5 ng/ul, Fab 100.00 nM
Description: as §1

[8] = biological target: T1, recombinant human DLL4 (Cat# …); assay: ELISA, hDLL4 coated 0.5 ng/ul, Fab 6.25 nM
Description: as §1

[9] = biological target: T2, full-length human DLL4 expressed on the surface of CHO cells (human, UniProt Q9NR61 26-685); assay: flow cytometry competition, 250 nM biotinylated Notch-Fc as competitor, Fab 2 nM
T2 construct: also called CHO-DLL4; DLL4-expressing CHO cells
Description: (§2) Streptavidin-PE was used as a detection molecule.
(§3) Fab was 5-fold serially diluted in 2% BSA/PBS from a starting concentration of 50 nM. […] PE-labeled streptavidin (Cat# 21627, Pierce-Thermo Scientific) was then added to a final dilution of 1:5 followed by incubation for 10 minutes at room temperature. The cells were then washed twice in 2% BSA/PBS and analyzed by flow cytometry on a BD FACSAria.

[10] = biological target: T2, full-length human DLL4 expressed on the …; assay: flow cytometry competition, 250 nM biotinylated Notch-Fc as competitor, Fab 50 nM
Description: as §2, §3

[11] = biological target: T2, full-length human DLL4 expressed on the …; assay: flow cytometry competition, 250 nM biotinylated Notch-Fc as competitor, Fab 10 nM
Description: as §2, §3

ELISA absorbance at 450 nm [1]: 0.145 A450
ELISA absorbance at 450 nm [2]: 0.148 A450
ELISA absorbance at 450 nm [3]: 0.294 A450
ELISA absorbance at 450 nm [4]: 0.421 A450
ELISA absorbance at 450 nm [5]: 0.661 A450
ELISA absorbance at 450 nm [6]: 0.167 A450
ELISA absorbance at 450 nm [7]: 1.07 A450
ELISA absorbance at 450 nm [8]: 0.229 A450
B1: Fab VH5-51_IGHD5-18*01>3_IGHJ4*01 G100K/G104T G24T/S28R/G35V (H:KT TRV) & V3-4_IGLJ1*01 M94R/S96M (L:RM) (Fab, V domains shown)
VH: EVQLVQSGAEVKKPGESLKISCKTSGYRFTSYWIVWVRQMPGKGLEWMGIIYPGDSDTRYSPSFQGQVTISADKSISTAYLQWSSLKASDTAMYYCARRKYSYTYDYFDYWGQGTLVTVSS
VL: QTVVTQEPSFSVSPGGTVTLTCGLSSGSVSTSYYPSWYQQTPGQAPRTLIYSTNTRSSGVPDRFSGSILGNKAALTITGAQADDESDYYCVLYRGMGISYVFGTGTKVTVL
notes: Tested as Fab from E. coli (Plasmid A: CH1, His6, Flag; Plasmid E: CL lambda); also called H:KT TRV & L:RM; KT TRV / RM

ELISA absorbance at 450 nm [1]: 0.138 A450
ELISA absorbance at 450 nm [2]: 0.148 A450
ELISA absorbance at 450 nm [3]: 0.226 A450
ELISA absorbance at 450 nm [4]: 0.333 A450
ELISA absorbance at 450 nm [5]: 0.524 A450
ELISA absorbance at 450 nm [6]: 0.164 A450
ELISA absorbance at 450 nm [7]: 0.67 A450
ELISA absorbance at 450 nm [8]: 0.203 A450
B2: Fab VH5-51_IGHD5-18*01>3_IGHJ4*01 G100K/G104T S28R (H:KT S28R) & V3-4_IGLJ1*01 (Fab, V domains shown)
VH: B1 VH with T24G, V35G
VL: B1 VL with R94M, M96S
notes: Tested as Fab from E. coli (Plasmid A: CH1, His6, Flag); Plasmid E: CL lambda; also called H:KT S28R & L:wt

signal of Notch-Fc bound to CHO-DLL4 (streptavidin-PE) [9]: 250
signal of Notch-Fc bound to CHO-DLL4 (streptavidin-PE) [10]: 105
signal of Notch-Fc bound to CHO-DLL4 (streptavidin-PE) [11]: 190
B3: Fab VH5-51_IGHD5-18*01>3_IGHJ4*01 G100K/G104T G24T/S28R/G35V (H:KT TRV) & V3-4_IGLJ1*01 V91L/S96P S52G (L:LP S52G) (Fab, V domains shown)
VH: B1 VH
VL: B1 VL with S52G, V91L, R94M, M96P
notes: Tested as Fab from E. coli (Plasmid A: CH1, His6, Flag; Plasmid E: CL lambda); also called H:KT TRV & L:LP S52G
